Some targets named below: TGFβ1 (human) (UniProt P01137); TGFβ2 (human) (UniProt P61812); TGFβ3 (human) (UniProt P10600).
Assay in all cases: SPR competition: 4 nM TGFβ pre-mixed with TGFβ-RIIb-Fc, injected over immobilised XPA.42.089 (competitor)

“TGFβ-RIIb-Fc recombinant receptor (from UniProt P37173 23-184) (Fc fusion)”: the average RU of TGFβ binding with TGFβ1 (human) was -0.316 RU; with TGFβ2 (human), 38.2 RU; with TGFβ3 (human), -0.378 RU.
